Publication PMC9335211

Experiments:
[1] = target: full-length ectodomains (EC1 to EC5) of mouse E-cadherin, wild type (mouse); experiment: high-speed atomic force microscopy
[2] = target: mouse E-cadherin full-length ectodomains, W2A mutant (mouse); experiment: high-speed atomic force microscopy

Row | stoichiometry N [1] | share of the observed dimers that are S-shaped [2] | share of the observed dimers that are cross-shaped (X-like dimer) [2] | Substance
1 | 2 | – | – | full-length ectodomains (EC1 to EC5) of mouse E-cadherin, wild type (domain or fragment)
2 | – | 45% | 20% | mouse E-cadherin full-length ectodomains, W2A mutant (domain or fragment)
